Laboratory results taken from PMC4615246.
Where two headings read alike, the source gives them in different places. Each block holds one substance with its values, some of them ahead of it.

Key:
Assay in all cases: LacI/LacO array recruitment in cells
LacI-CFP-sPom121 (human) [1] = molecular target: LacI-CFP-sPom121 (human) (UniProt Q96HA1)
LacI-CFP-Nup214 (human) [2] = molecular target: LacI-CFP-Nup214 (human) (UniProt P35658)
LacI-CFP-Nup53 (human) = LacI-CFP-Nup53 (human) (UniProt Q8NFH5)
LacI-CFP-Nup58 (human) = LacI-CFP-Nup58 (human) (UniProt Q9BVL2)
LacI-CFP-mNup85 (mouse) = LacI-CFP-mNup85 (mouse) (UniProt Q8R480)
LacI-CFP-Nup133 (human) = LacI-CFP-Nup133 (human) (UniProt Q8WUM0)
LacI-CFP-Nup153 (human) = LacI-CFP-Nup153 (human) (UniProt P49790)
LacI-CFP-Nup107 (human) = LacI-CFP-Nup107 (human) (UniProt P57740)
LacI-CFP-Nup98 (human) = LacI-CFP-Nup98 (human) (UniProt P52948)
LacI-CFP-Nup50 (human) = LacI-CFP-Nup50 (human) (UniProt Q9UKX7)
LacI-CFP-Nup214 (human) [3] = molecular target: LacI-CFP-Nup214 (human) (UniProt P35658); remark: listed apart in the source
LacI-CFP-sPom121 (human) [4] = molecular target: LacI-CFP-sPom121 (human) (UniProt Q96HA1); remark: listed apart in the source

Chain of LacI-CFP-sPom121 (human) (Q96HA1 whole entry): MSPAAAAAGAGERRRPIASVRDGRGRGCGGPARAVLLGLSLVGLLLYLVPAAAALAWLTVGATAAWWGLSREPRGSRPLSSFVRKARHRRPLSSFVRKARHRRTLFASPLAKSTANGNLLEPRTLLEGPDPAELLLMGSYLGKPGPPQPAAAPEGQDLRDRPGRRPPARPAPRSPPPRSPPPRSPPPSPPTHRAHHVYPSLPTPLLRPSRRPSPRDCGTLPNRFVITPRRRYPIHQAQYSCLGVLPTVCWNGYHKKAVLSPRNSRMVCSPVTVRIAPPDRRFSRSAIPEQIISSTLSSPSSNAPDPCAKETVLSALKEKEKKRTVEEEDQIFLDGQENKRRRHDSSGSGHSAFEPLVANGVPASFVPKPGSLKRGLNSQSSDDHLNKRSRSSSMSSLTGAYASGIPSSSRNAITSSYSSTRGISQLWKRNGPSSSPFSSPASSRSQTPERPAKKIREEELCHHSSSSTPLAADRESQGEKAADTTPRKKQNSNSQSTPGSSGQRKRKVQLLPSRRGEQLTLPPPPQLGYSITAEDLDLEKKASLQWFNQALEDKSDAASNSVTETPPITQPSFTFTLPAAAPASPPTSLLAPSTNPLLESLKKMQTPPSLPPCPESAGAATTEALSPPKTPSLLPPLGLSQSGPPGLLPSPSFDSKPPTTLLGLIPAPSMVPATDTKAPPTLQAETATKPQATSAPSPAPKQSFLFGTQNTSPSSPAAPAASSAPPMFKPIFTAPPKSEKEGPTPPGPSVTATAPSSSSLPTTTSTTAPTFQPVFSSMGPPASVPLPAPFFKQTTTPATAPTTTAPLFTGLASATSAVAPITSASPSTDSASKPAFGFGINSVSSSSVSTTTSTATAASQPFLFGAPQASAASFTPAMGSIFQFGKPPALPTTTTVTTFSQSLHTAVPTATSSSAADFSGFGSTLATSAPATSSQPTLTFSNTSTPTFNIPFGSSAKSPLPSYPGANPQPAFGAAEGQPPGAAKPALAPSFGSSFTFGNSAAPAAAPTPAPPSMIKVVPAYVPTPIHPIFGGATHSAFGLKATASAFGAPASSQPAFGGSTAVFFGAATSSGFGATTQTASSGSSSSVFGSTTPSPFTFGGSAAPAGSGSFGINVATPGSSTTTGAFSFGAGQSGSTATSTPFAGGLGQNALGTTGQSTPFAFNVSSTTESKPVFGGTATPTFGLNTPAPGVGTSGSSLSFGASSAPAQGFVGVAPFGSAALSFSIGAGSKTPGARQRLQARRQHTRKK
Chain of LacI-CFP-Nup133 (human) (Q8WUM0 whole entry): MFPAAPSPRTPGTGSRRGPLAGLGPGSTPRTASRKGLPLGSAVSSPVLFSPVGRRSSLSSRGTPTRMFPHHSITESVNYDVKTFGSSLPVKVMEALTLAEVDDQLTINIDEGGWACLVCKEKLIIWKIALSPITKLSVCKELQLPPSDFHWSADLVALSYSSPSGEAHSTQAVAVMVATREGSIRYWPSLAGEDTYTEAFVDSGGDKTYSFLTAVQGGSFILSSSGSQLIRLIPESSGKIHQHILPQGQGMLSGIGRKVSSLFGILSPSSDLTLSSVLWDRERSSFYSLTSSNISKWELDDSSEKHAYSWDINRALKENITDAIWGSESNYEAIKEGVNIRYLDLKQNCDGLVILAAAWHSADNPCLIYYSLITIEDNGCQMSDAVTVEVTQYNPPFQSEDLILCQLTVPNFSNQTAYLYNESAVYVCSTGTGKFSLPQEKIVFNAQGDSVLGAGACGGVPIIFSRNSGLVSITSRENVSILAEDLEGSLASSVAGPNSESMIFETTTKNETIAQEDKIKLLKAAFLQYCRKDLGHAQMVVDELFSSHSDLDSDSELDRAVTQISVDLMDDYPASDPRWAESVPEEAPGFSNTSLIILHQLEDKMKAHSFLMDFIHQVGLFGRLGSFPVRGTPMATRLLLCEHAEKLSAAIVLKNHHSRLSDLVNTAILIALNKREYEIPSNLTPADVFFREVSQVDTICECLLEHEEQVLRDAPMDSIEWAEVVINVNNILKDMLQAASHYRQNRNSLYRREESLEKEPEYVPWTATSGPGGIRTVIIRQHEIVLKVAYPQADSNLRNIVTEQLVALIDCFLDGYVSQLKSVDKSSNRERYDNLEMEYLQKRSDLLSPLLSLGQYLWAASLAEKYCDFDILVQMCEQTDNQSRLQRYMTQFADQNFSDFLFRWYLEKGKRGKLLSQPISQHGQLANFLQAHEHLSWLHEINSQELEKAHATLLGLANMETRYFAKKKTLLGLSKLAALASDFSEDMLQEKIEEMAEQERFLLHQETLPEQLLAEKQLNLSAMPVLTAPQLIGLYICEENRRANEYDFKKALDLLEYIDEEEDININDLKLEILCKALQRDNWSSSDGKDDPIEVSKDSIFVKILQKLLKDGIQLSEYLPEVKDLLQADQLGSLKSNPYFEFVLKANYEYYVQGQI
Chain of LacI-CFP-Nup153 (human) (P49790 whole entry): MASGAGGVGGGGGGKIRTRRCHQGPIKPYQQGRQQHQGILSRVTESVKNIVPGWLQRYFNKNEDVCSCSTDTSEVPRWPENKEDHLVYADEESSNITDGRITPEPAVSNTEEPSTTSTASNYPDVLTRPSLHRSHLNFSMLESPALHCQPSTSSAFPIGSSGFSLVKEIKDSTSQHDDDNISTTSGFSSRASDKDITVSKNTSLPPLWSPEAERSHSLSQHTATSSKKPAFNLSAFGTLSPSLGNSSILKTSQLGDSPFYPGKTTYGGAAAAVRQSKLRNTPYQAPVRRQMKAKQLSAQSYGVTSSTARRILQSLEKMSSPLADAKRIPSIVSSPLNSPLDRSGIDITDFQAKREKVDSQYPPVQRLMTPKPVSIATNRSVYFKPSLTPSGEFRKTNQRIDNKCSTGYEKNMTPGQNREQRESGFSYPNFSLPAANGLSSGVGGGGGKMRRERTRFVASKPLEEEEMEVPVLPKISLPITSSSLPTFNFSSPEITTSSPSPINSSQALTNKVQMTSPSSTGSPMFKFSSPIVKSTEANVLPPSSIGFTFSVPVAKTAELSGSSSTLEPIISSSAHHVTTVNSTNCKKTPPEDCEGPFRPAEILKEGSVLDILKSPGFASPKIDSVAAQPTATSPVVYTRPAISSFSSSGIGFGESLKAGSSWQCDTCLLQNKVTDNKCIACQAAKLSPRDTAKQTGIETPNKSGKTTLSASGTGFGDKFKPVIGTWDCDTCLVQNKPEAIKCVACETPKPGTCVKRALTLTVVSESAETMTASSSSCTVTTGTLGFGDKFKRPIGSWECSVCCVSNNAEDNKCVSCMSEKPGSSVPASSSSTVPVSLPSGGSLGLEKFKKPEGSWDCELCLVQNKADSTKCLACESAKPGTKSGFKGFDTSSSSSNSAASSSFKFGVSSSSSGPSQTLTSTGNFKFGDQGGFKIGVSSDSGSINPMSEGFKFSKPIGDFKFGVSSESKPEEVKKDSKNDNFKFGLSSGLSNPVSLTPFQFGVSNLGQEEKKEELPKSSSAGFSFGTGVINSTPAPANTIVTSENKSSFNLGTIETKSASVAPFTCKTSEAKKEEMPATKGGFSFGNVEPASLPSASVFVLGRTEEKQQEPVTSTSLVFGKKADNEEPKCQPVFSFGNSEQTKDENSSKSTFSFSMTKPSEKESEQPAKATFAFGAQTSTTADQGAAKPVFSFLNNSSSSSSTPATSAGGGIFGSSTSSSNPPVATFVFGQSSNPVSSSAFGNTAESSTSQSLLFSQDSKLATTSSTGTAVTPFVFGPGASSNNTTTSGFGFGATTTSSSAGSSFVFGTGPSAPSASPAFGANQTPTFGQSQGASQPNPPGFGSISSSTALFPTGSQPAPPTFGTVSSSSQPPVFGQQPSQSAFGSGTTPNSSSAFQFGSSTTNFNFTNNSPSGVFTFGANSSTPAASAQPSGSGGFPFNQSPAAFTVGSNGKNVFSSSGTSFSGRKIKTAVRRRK
Chain of LacI-CFP-mNup85 (mouse) (Q8R480 whole entry): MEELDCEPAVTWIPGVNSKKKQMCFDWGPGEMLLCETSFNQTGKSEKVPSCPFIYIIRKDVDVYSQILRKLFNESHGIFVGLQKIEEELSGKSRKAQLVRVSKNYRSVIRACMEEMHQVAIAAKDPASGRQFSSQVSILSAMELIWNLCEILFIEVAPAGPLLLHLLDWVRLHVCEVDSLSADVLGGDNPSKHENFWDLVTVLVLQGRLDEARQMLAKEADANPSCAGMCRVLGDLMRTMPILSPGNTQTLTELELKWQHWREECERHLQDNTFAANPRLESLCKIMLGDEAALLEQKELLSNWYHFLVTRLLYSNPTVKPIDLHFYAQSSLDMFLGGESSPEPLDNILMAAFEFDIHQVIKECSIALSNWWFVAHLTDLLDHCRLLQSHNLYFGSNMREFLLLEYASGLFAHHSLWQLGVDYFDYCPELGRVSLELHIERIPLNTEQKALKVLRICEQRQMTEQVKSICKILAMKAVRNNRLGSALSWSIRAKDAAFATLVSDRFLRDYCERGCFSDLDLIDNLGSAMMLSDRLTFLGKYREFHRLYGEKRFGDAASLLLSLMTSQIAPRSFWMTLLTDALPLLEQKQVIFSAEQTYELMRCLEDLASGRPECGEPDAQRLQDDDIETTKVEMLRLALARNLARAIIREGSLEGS
Chain of LacI-CFP-Nup53 (human) (Q8NFH5 whole entry): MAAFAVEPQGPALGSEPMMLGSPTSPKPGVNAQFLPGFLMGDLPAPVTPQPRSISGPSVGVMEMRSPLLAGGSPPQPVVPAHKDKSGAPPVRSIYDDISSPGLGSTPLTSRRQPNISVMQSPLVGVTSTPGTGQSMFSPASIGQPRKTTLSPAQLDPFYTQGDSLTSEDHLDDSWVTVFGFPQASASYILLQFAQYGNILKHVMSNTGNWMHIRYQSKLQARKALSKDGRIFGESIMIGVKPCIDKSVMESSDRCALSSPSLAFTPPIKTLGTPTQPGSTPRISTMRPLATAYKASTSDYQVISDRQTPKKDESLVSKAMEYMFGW

percent of transfected cells showing colocalization (LacI-CFP-sPom121 (human) [1]): 14%
Substance: ELYS (endogenous) (from UniProt Q8WYP5 1-2266) (natural protein)

percent of transfected cells showing colocalization (LacI-CFP-Nup214 (human) [2]): 40%
percent of transfected cells showing colocalization (LacI-CFP-Nup53 (human)): 34%
percent of transfected cells showing colocalization (LacI-CFP-Nup58 (human)): 13%
percent of transfected cells showing colocalization (LacI-CFP-mNup85 (mouse)): 9%
percent of transfected cells showing colocalization (LacI-CFP-Nup133 (human)): 62%
percent of transfected cells showing colocalization (LacI-CFP-Nup153 (human)): 65%
percent of transfected cells showing colocalization (LacI-CFP-Nup107 (human)): 72%
percent of transfected cells showing colocalization (LacI-CFP-Nup98 (human)): 16%
percent of transfected cells showing colocalization (LacI-CFP-Nup50 (human)): 37%
percent of transfected cells showing colocalization (LacI-CFP-Nup214 (human) [3]): 45%
Substance: ELYS (endogenous), Q8WYP5 1-2266

percent of transfected cells showing colocalization (LacI-CFP-sPom121 (human) [1]): 2%
Substance: Nup53 (endogenous) (from UniProt Q8NFH5 1-326) (natural protein)

percent of transfected cells showing colocalization (LacI-CFP-sPom121 (human) [1]): 89%
Substance: Nup62 (endogenous) (from UniProt P37198 1-522) (natural protein)

percent of transfected cells showing colocalization (LacI-CFP-sPom121 (human) [1]): 7%
Substance: Nup85 (endogenous) (from UniProt Q9BW27 1-656) (natural protein)

percent of transfected cells showing colocalization (LacI-CFP-sPom121 (human) [4]): 71%
percent of transfected cells showing colocalization (LacI-CFP-sPom121 (human) [1]): 68%
Substance: Nup93 (endogenous) (from UniProt Q8N1F7 1-819) (natural protein)

percent of transfected cells showing colocalization (LacI-CFP-sPom121 (human) [4]): 74%
percent of transfected cells showing colocalization (LacI-CFP-sPom121 (human) [1]): 72%
Substance: Nup98 (endogenous) (from UniProt P52948 1-880) (natural protein)

percent of transfected cells showing colocalization (LacI-CFP-sPom121 (human) [1]): 8%
Substance: Nup133 (endogenous) (from UniProt Q8WUM0 1-1156) (natural protein)

percent of transfected cells showing colocalization (LacI-CFP-Nup133 (human)): 23%
Substance: Nup214 (endogenous), P35658 1-2090 (natural protein)

percent of transfected cells showing colocalization (LacI-CFP-Nup153 (human)): 6%
Substance: Nup214 (endogenous), P35658 1-2090 (natural protein; other documents disagree on this pair)
